# From PMC9431274, “Stenotrophomonas maltophilia from Nepal Producing Two Novel Antibiotic Inactivating Enzymes, a Class A β-Lactamase KBL-1 and an Aminoglycoside 6′-N-Acetyltransferase AAC(6′)-Iap” (Microbiology Spectrum, 2022)
# Key:
# [1] = system: CC1(C)S[C@@H]2[C@H](NC(=O)Cc3ccccc3)C(=O)N2[C@H]1C(=O)O; experiment: initial rate of hydrolysis, UV spectrophotometry, Lineweaver-Burk; assay type: biochemical, Stenotrophomonas maltophilia; conditions: 37°C, 50 mM Tris-HCl pH 7.4, 0.3 M NaCl
# Description: (§1) initial rate of hydrolysis, UV spectrophotometry, Lineweaver-Burk on KBL-1
# [2] = system: CCN1CCN(C(=O)N[C@@H](C(=O)N[C@@H]2C(=O)N3[C@@H]2SC(C)(C)[C@@H]3C(=O)O)c2ccccc2)C(=O)C1=O; experiment: as above; assay type: biochemical, Stenotrophomonas maltophilia; conditions: 37°C, 50 mM Tris-HCl pH 7.4, 0.3 M NaCl
# Description: as §1
# [3] = system: CC1=C(C(=O)O)N2C(=O)[C@@H](NC(=O)[C@H](N)C3=CCC=CC3)[C@H]2SC1; experiment: as above; assay type: biochemical, Stenotrophomonas maltophilia; conditions: 37°C, 50 mM Tris-HCl pH 7.4, 0.3 M NaCl
# Description: as §1
# [4] = system: C[C@@H](O)[C@H]1C(=O)N2C(C(=O)O)=C(SCCN=CN)C[C@H]12; experiment: as above; assay type: biochemical, Stenotrophomonas maltophilia; conditions: 37°C, 50 mM Tris-HCl pH 7.4, 0.3 M NaCl
# Description: as §1
# [5] = system: CC1(C)S[C@@H]2[C@H](NC(=O)[C@H](N)c3ccc(O)cc3)C(=O)N2[C@H]1C(=O)O; experiment: as above; assay type: biochemical, Stenotrophomonas maltophilia; conditions: 37°C, 50 mM Tris-HCl pH 7.4, 0.3 M NaCl
# Description: as §1
# [6] = system: CC1(C)S[C@@H]2[C@H](NC(=O)[C@H](N)c3ccccc3)C(=O)N2[C@H]1C(=O)O; experiment: as above; assay type: biochemical, Stenotrophomonas maltophilia; conditions: 37°C, 50 mM Tris-HCl pH 7.4, 0.3 M NaCl
# Description: as §1
# [7] = system: CO/N=C(\C(=O)N[C@@H]1C(=O)N2C(C(=O)[O-])=C(C[N+]3(C)CCCC3)CS[C@H]12)c1csc(N)n1; experiment: as above; assay type: biochemical, Stenotrophomonas maltophilia; conditions: 37°C, 50 mM Tris-HCl pH 7.4, 0.3 M NaCl
# Description: as §1
# [8] = system: CC(C)(O/N=C(\C(=O)N[C@@H]1C(=O)N2C(C(=O)[O-])=C(C[n+]3ccccc3)CS[C@H]12)c1csc(N)n1)C(=O)O; experiment: as above; assay type: biochemical, Stenotrophomonas maltophilia; conditions: 37°C, 50 mM Tris-HCl pH 7.4, 0.3 M NaCl
# Description: as §1
# [9] = system: CO[C@@]1(NC(=O)C(C(=O)O)c2ccc(O)cc2)C(=O)N2C(C(=O)O)=C(CSc3nnnn3C)CO[C@@H]21; experiment: as above; assay type: biochemical, Stenotrophomonas maltophilia; conditions: 37°C, 50 mM Tris-HCl pH 7.4, 0.3 M NaCl
# Description: as §1
# [10] = system: C[C@@H](O)[C@H]1C(=O)N2C(C(=O)O)=C(S[C@@H]3CN[C@H](C(=O)N(C)C)C3)[C@H](C)[C@H]12; experiment: as above; assay type: biochemical, Stenotrophomonas maltophilia; conditions: 37°C, 50 mM Tris-HCl pH 7.4, 0.3 M NaCl
# Description: as §1
# [11] = system: CO/N=C(\C(=O)N[C@@H]1C(=O)N2C(C(=O)O)=C(COC(C)=O)CS[C@H]12)c1csc(N)n1; experiment: as above; assay type: biochemical, Stenotrophomonas maltophilia; conditions: 37°C, 50 mM Tris-HCl pH 7.4, 0.3 M NaCl
# Description: as §1
# [12] = system: CO[C@@]1(NC(=O)Cc2cccs2)C(=O)N2C(C(=O)O)=C(COC(N)=O)CS[C@@H]21; experiment: as above; assay type: biochemical, Stenotrophomonas maltophilia; conditions: 37°C, 50 mM Tris-HCl pH 7.4, 0.3 M NaCl
# Description: as §1
# [13] = molecular target: T1, KBL-1 (Stenotrophomonas maltophilia, UniProt A0A7I8E9L1); experiment: penicillin G hydrolysis, UV spectrophotometry; assay type: biochemical
# T1 construct: gene blaKBL-1; full length 286 residues; expressed without signal peptide in E. coli BL21-CodonPlus (pET28a); His-tag removed by TEV
# T1 sequence (A0A7I8E9L1 entry or part of it): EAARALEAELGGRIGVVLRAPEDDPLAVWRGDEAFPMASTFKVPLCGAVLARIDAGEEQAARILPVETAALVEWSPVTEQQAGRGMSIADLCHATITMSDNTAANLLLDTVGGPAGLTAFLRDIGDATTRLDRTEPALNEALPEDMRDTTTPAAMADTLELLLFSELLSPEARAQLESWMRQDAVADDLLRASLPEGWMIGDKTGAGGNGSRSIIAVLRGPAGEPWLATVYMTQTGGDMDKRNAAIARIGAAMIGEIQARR
compound,measurement,setting,value
KBL-1 (Stenotrophomonas maltophilia),Km,[1],21 ± 5 µM
same,kcat,[1],24 ± 2 s⁻¹
same,kcat/Km,[1],1.17e+06 M⁻¹ s⁻¹
same,Km,[2],52 ± 7 µM
same,kcat,[2],22 ± 1 s⁻¹
same,kcat/Km,[2],422000 M⁻¹ s⁻¹
same,Km,[3],605 ± 45 µM
same,kcat,[3],2.23 ± 0.13 s⁻¹
same,kcat/Km,[3],4000 M⁻¹ s⁻¹
same,Km,[4],85 ± 7 µM
same,kcat,[4],1.13 ± 0.143 s⁻¹
same,kcat/Km,[4],13000 M⁻¹ s⁻¹
same,Km,[5],23 ± 4 µM
same,kcat,[5],10 ± 0.4 s⁻¹
same,kcat/Km,[5],455000 M⁻¹ s⁻¹
same,Km,[6],37 ± 8 µM
same,kcat,[6],19 ± 1 s⁻¹
same,kcat/Km,[6],532000 M⁻¹ s⁻¹
same,Km,[7],79 ± 2 µM
same,kcat,[7],0.751 ± 0.029 s⁻¹
same,kcat/Km,[7],10000 M⁻¹ s⁻¹
same,Km,[8],45 ± 12 µM
same,kcat,[8],0.013 ± 0.003 s⁻¹
same,kcat/Km,[8],300 M⁻¹ s⁻¹
same,Km,[9],49 ± 4 µM
same,kcat,[9],0.392 ± 0.009 s⁻¹
same,kcat/Km,[9],8000 M⁻¹ s⁻¹
same,Km,[10],39 ± 6 µM
same,kcat,[10],0.443 ± 0.056 s⁻¹
same,kcat/Km,[10],11000 M⁻¹ s⁻¹
same,Km,[11],31 ± 5 µM
same,kcat,[11],1.33 ± 0.053 s⁻¹
same,kcat/Km,[11],44000 M⁻¹ s⁻¹
same,Km,[12],57 ± 6 µM
same,kcat,[12],0.032 ± 0.002 s⁻¹
same,kcat/Km,[12],1000 M⁻¹ s⁻¹
O=C(O)[C@H]1/C(=C/CO)O[C@@H]2CC(=O)N21 [clavulanic acid],IC50,[13],210 nM
CC1(C)[C@H](C(=O)O)N2C(=O)C[C@H]2S1(=O)=O [sulbactam],IC50,[13],1200 nM
